The values that follow come from patent US20230296569A1, “Substance quantification in complex mixtures” (ISA Pharmaceuticals B.V., priority 2021, published 2023).

Data set [1] can be described thus: Peptide content (assay) of lyophilized drug product by UPLC-UV at 220 nm, conventional method (peptide as reference standard). As to conditions: conventional method (peptide as RS). The format is physicochemical. As for the experimental part:
The purity including individual related substances and the assay of a DP-5P (5 peptides, SEQ ID NOs: 1-5) and DP-7P (7 peptides, SEQ ID NOs: 6-12) mixture were determined by reversed phase rapid HPLC (UPLC) using a mobile phase gradient of acetonitrile and water and UV detection at λ=220 nm.
• Column: RP C18, e.g. Waters Acquity, BEH 130 PST (1.7 μm, 150×2.1 mm) • Sample matrix Eluent A : Eluent B=85:15 (v/v). • Sample concentration 100 μg/mL net peptide (of each drug substance mixture), duplicate • Injection volume: 5 μL • Column temperature: 65° C. • Sample temperature: 5° C. • Detection: UV (λ=220 nm) • Flow rate: 0.3 mL/min • Eluent A: 0.05%v/v TFA and 1%v/v Acetonitrile (ACN) in water • Eluent B: 0.05%v/v TFA in ACN
The relative retention times (RRTs) assigned to peptides and related substances both in a DP-5P (SEQ ID NO: 1-5) and DP-7P (SEQ ID NO: 6-12) mixture was calculated with reference to the retention time of the peptide eluting in the middle (FIG. 1 and FIG. 2). That retention time was used as reference as the main peak of this drug substance was detected approx. in the center of the chromatogram. The related substances were determined by area normalization. The individual related substances were reported≥0.10%a/a. The total related substances were calculated as the sum of all individual related substances equal to or greater than a disregard limit of 0.0500%a/a. The purity was calculated as the difference between total related substances and 100%.
The assay of each of the peptides was calculated against a reference standard solution containing either five peptides (DP-5P) or seven peptides (DP-7P) and was expressed in percent and in mg net peptide/vial. For this reference method, the absorption ratio between the reference substance and the analyte is 1, because the reference substance is the analyte itself.
At T=0 months (TOM) the peptide content was measured using the conventional method of Example 2. From T=48 months (T48M) onwards the peptide content was measured with the conventional method of Example 2 and the method according to the invention of Example 3.

Data set [2] in a line: Peptide content (assay) of lyophilized drug product by UPLC-UV at 220 nm, method according to the invention (USP reserpine reference standard, RRF). As to conditions: method according to the invention (USP RS). The format is physicochemical. An excerpt: The UPLC method similar to Example 1 was used for the quantification of analytes (i.e. the individual peptides) in mixtures DP-5P (SEQ ID NO: 1-5) and DP-7P (SEQ ID NO: 6-12) and for the determination of content uniformity of mixtures DP-5P and DP-7P (lyophilized product). The method is based on the use of an external reference standard. The relative response factor (ratio of molar extinction coefficients, RRF) against this external reference standard has been established for each peptide. The purity, individual related substances, and the assay of DP-5P and DP-7P were determined by reversed phase rapid HPLC (UPLC) using a mobile phase gradient of ACN/IPA and water and UV detection at λ220 nm.
The following lyophilized peptide compositions were used: DP-5P comprising peptides represented herein by SEQ ID NO: 1-5 admixed at equal net weights of 0.40 mg of each peptide per vial (total amount of protein per vial being 2.00 mg) and 0.56 mg TFA per vial; and DP-7P comprising peptides represented herein by SEQ ID NO: 6-12 admixed at equal net weights of 0.40 mg of each peptide per vial (total amount of protein per vial being 2.80 mg) and 0.96 mg TFA per vial. The following chemicals were used: Acetonitrile, (Biosolve, 01204102); UPLC water, (Type 1, milli-Q); trifluoroacetic acid, (Chem Lab, CLoo.2094.0001), 2-propanol, (UPLC/MS grade, Biosolve, 16264102); Reserpine, (USP, Sigma Aldrich, 1601000). The following equipment was used: QuanRecovery vials, (Waters, 186009186); UPLC pump equipped with a gradient system, autosampler, and UV detection (Waters Acquity or equivalent) and mixer volume 425 μL.
• Mobile phase A: 0.1% (v/v) TFA in water • Mobile phase B: 0.1% (v/v) TFA in 70/30 ACN/IPA • Diluent A: 0.05% (v/v) TFA in water • Diluent B: 0.05% (v/v) TFA in ACN • Blank solution: 80/20 (v/v) diluent A/diluent B • Purge solvent: 80/20 (v/v) water/ACN • Needle wash: 0.05% (v/v) TFA in 80/20 (v/v) water/ACN
5.00 mg Reserpine reference material was accurately weighed and added into a 50 mL volumetric flask. 40.0 mL of blank solution was added, by means of a volumetric pipette. The solution was stirred for 10 min, by means of a magnetic stirrer, until fully dissolved. The solution was diluted to volume with blank solution and mixed well.
Transfer of 2.0 mL, by means of a volumetric pipette, of stock reference solution 1 into a 20 mL volumetric flask. Diluted to volume with blank solution and homogenized.
This sample preparation was setup for lyophilized products DP-5P and DP-7P in an initially sealed container. Before opening and dissolving the drug product, the vials were equilibrated at room temperature for at least 1 hour. The content of the vial was dissolved with 0.8 mL of diluent B, and stirred for 20 min, using a magnetic stirrer. 3.2 mL of diluent A were added. The solution was stirred well for 20 min, using a magnetic stirrer. After dissolving the content of the vial, the sample vial was kept on the lab bench for 30 minutes. The solution was stirred briefly and transferred into an HPLC vial.
• Column: Advance Bio Peptide Map (2.7 μm, 250 x 2.1 mm) • Sample matrix 0.05%v/v TFA in ACN : water (1:4 v/v) • Sample concentration 100 μg/mL net peptide (of each drug substance), duplicate • Injection volume: 10 μL • Column temperature: 40° C. • Sample temperature: 5° C. • Detection: UV (λ=220 nm) • Flow rate: 0.2 mL/min • Run time: 65 min • Purge solvent: 80/20 (v/v) water/ACN • Needle wash: 0.05% (v/v) TFA in 80/20 water/ACN (v/v) (20 s) • Seal wash: 90/10 (v/v) water/MeOH • Elution mode: Gradient elution • Eluent A: 0.1%v/v TFA in water • Eluent B: 0.1%v/v TFA in ACN/IPA (70:30 v/v)
The RRF was determined for all 12 peptides, enabling the quantification of each peptide against a reserpine as shown above. For the determination, the absorbance of each peptide in a solution comprising said peptide at a known concentration, and of a reference standard solution comprising reserpine at a known concentration, were measured at 220 nm. […]

For “LPQLCTELQTTIHDIILECVYCKQQLLRREVY (Peptide 9)”, the “Assay (mg/vial)” value in data set [1] (DP-7P batch, T0M) was determined as 0.4328 mg/vial; in data set [1] (DP-7P batch, T48M), 0.4325 mg/vial; in data set [1] (DP-7P batch, T54M), 0.4262 mg/vial; in data set [1] (DP-7P batch, T60M) it was 0.4361 mg/vial; in data set [2] (DP-7P batch, T48M), 0.3901 mg/vial; in data set [2] (DP-7P batch, T54M) it was 0.3718 mg/vial. Besides, the “Assay (mg/vial)” value in data set [2] (DP-7P batch, T60M) is 0.3700 mg/vial. Moreover, the “Label claim (% target 0.40 mg/vial)” value was determined as 108% in data set [1] (DP-7P batch, T0M); 108% in data set [1] (DP-7P batch, T48M); 107% in data set [1] (DP-7P batch, T54M); 109% in data set [1] (DP-7P batch, T60M); 98% in data set [2] (DP-7P batch, T48M); 93% in data set [2] (DP-7P batch, T54M). The “Label claim (% target 0.40 mg/vial)” value in data set [2] (DP-7P batch, T60M) amounted to 93%.

Regarding “DKKQRFHNIRGRWTGRCMSCCRSSRTRRETQL (Peptide 6)”, the “Assay (mg/vial)” value in data set [1] (DP-7P batch, T0M) stood at 0.4315 mg/vial; in data set [1] (DP-7P batch, T48M), 0.4390 mg/vial; in data set [1] (DP-7P batch, T54M) it was 0.4280 mg/vial; in data set [1] (DP-7P batch, T60M), 0.4286 mg/vial; in data set [2] (DP-7P batch, T48M), 0.4100 mg/vial; in data set [2] (DP-7P batch, T54M) it was 0.4033 mg/vial. In data set [2] (DP-7P batch, T60M), the “Assay (mg/vial)” value is listed as 0.4010 mg/vial. The “Label claim (% target 0.40 mg/vial)” value in data set [1] (DP-7P batch, T0M) is on record as 108%; in data set [1] (DP-7P batch, T48M), 110%; in data set [1] (DP-7P batch, T54M), 107%; in data set [1] (DP-7P batch, T60M), 107%; in data set [2] (DP-7P batch, T48M), 103%; in data set [2] (DP-7P batch, T54M), 101%. Besides, the “Label claim (% target 0.40 mg/vial)” value in data set [2] (DP-7P batch, T60M) is listed as 100%.

HYCYSLYGTTLEQQYNKPLCDLLIR (Peptide 7): the “Assay (mg/vial)” value in data set [1] (DP-7P batch, T0M) is reported as 0.4393 mg/vial; in data set [1] (DP-7P batch, T48M), 0.4279 mg/vial; in data set [1] (DP-7P batch, T54M), 0.4219 mg/vial; in data set [1] (DP-7P batch, T60M), 0.4222 mg/vial; in data set [2] (DP-7P batch, T48M), 0.4036 mg/vial; in data set [2] (DP-7P batch, T54M), 0.3980 mg/vial. Further, in data set [2] (DP-7P batch, T60M), the “Assay (mg/vial)” value is recorded as 0.3967 mg/vial. Moreover, the “Label claim (% target 0.40 mg/vial)” value in data set [1] (DP-7P batch, T0M) turned out to be 107%; in data set [1] (DP-7P batch, T48M), 107%; in data set [1] (DP-7P batch, T54M), 105%; in data set [1] (DP-7P batch, T60M) it was 106%; in data set [2] (DP-7P batch, T48M), 101%; in data set [2] (DP-7P batch, T54M), 99%. For the same sequence, the “Label claim (% target 0.40 mg/vial)” value in data set [2] (DP-7P batch, T60M) stood at 99%.

As to “LYCYEQLNDSSEEEDEIDGPAGQAEPDRAHYNIVT (Peptide 2)”, the “Assay (mg/vial)” value in data set [1] (DP-5P batch, T0M) was determined as 0.4085 mg/vial; in data set [1] (DP-5P batch, T48M), 0.4141 mg/vial; in data set [1] (DP-5P batch, T54M), 0.4149 mg/vial; in data set [1] (DP-5P batch, T60M) it was 0.4174 mg/vial; in data set [2] (DP-5P batch, T48M), 0.3950 mg/vial; in data set [2] (DP-5P batch, T54M) it was 0.3932 mg/vial. In data set [2] (DP-5P batch, T60M), the “Assay (mg/vial)” value stood at 0.3880 mg/vial. The “Label claim (% target 0.40 mg/vial)” value is 102% in data set [1] (DP-5P batch, T0M); 104% in data set [1] (DP-5P batch, T48M); 104% in data set [1] (DP-5P batch, T54M); 104% in data set [1] (DP-5P batch, T60M); 99% in data set [2] (DP-5P batch, T48M); 98% in data set [2] (DP-5P batch, T54M). In data set [2] (DP-5P batch, T60M), the “Label claim (% target 0.40 mg/vial)” value turned out to be 97%.

With “TLRLCVQSTHVDIRTLEDLLMGTLGIVCPICSQKP (Peptide 5)”, the “Assay (mg/vial)” value was determined as 0.3976 mg/vial in data set [1] (DP-5P batch, T0M); 0.4107 mg/vial in data set [1] (DP-5P batch, T48M); 0.3948 mg/vial in data set [1] (DP-5P batch, T54M); 0.4011 mg/vial in data set [1] (DP-5P batch, T60M); 0.4028 mg/vial in data set [2] (DP-5P batch, T48M); 0.4021 mg/vial in data set [2] (DP-5P batch, T54M). In addition, the “Assay (mg/vial)” value in data set [2] (DP-5P batch, T60M) amounted to 0.3968 mg/vial. Further, the “Label claim (% target 0.40 mg/vial)” value in data set [1] (DP-5P batch, T0M) was 99%; in data set [1] (DP-5P batch, T48M), 103%; in data set [1] (DP-5P batch, T54M), 99%; in data set [1] (DP-5P batch, T60M) it was 100%; in data set [2] (DP-5P batch, T48M), 101%; in data set [2] (DP-5P batch, T54M) it was 101%. Moreover, the “Label claim (% target 0.40 mg/vial)” value in data set [2] (DP-5P batch, T60M) is on record as 99%.

Regarding RDLCIVYRDGNPYAVCDKCLKFYSKI (Peptide 11), the “Assay (mg/vial)” value in data set [1] (DP-7P batch, T0M) is given as 0.4235 mg/vial; in data set [1] (DP-7P batch, T48M), 0.4293 mg/vial; in data set [1] (DP-7P batch, T54M), 0.4192 mg/vial; in data set [1] (DP-7P batch, T60M), 0.4209 mg/vial; in data set [2] (DP-7P batch, T48M) it was 0.3866 mg/vial; in data set [2] (DP-7P batch, T54M), 0.3815 mg/vial. In data set [2] (DP-7P batch, T60M), the “Assay (mg/vial)” value is on record as 0.3788 mg/vial. The “Label claim (% target 0.40 mg/vial)” value in data set [1] (DP-7P batch, T0M) is listed as 106%; in data set [1] (DP-7P batch, T48M), 107%; in data set [1] (DP-7P batch, T54M) it was 105%; in data set [1] (DP-7P batch, T60M), 105%; in data set [2] (DP-7P batch, T48M), 97%; in data set [2] (DP-7P batch, T54M), 95%. Also, the “Label claim (% target 0.40 mg/vial)” value in data set [2] (DP-7P batch, T60M) is reported as 95%.
